# Test results from patent US20250327097A1, “ORGANISMS PRODUCING LESS CROTONIC ACID” (Global Bioenergies, priority 2021, published 2025).
# Numbering of substitutions follows the chain as printed. Names may count otherwise.
# B1: R15L-I283T-P284D-i284aP-N287P-S322T-K378M-N388M-E421V-C430N-L432F-L434W-S436N-H461T-dG462-A463T (protein)
# chain: MFLKSLREQINLLKLQGDLRIINRPVDSYLEAAAIIRRSTETKAPVPLMTNIKGYPGCSIVGGLAALSSNPEYPLSRVAMSLGLSTTASAQSIVQYLIDGLKKTPYLPVEIDSNSAPCKQNILRGEDASLAHFPIPQVHQHDGNRYVNTWGVFIVESPDGQWCNWSIQRVQYLNDRQMIALVFPSQHISDIWEEWVKIGKPMPYALVQGCEPIVPYIAGLPLLERNVNEAEYIGALYGKGIEVVKCETHDLRVPASSEVVIEGYFAITREGVEGPFGEFAGYTDNEPSLQPILSITAISWQDDPIWPVVAEGKPVDEYHTCTGIGDAAAIQNVLLTANLPVSFVWVPLYSACHLMIVSINRHWRQTHPDLTSEQLTKMVGDVIHQTRMSIKLPKIVVLDDDVDPADTESLLWALATRIHPVRKRYFYESNIFPWLNCYSEEERHNRKGKRVIIDALLPENTGTISSFDYAYPDDIKQRVLMHWETDFSHD
# B2: V272I-I283T-P284D-i284aP-N287P-S322T-N388M-E421V-C430N-L432F-L434W-S436N-H461T-dG462-A463T (protein)
# chain: B1 chain with L15R, V272I, M378K
# B3: I283T-P284D-i284aP-N287P-S322T-N388M-E421V-C430N-L432F-L434W-S436N-C437F-H461T-G462R-i462aA-A463T (protein)
# chain: B1 chain with L15R, M378K, C437F, G462R
# B4: V272R-I283T-P284D-i284aP-N287P-S322T-N388M-E421V-C430N-L432F-L434W-S436N-C437F-G448E-H461T-dG462-A463T (protein)
# chain: B1 chain with L15R, V272R, M378K, C437F, G448E
# B5: V272R-I283T-P284D-i284aP-N287P-S322T-N388M-E421V-C430N-L432F-L434W-S436N-C437F-H461T-dG462-A463T (protein)
# chain: B1 chain with L15R, V272R, M378K, C437F
# B6: I283T-P284D-i284aP-N287P-S322T-N388M-E421V-C430R-L432F-L434W-S436N-C437F-H461T-G462R-i462aA-A463T (protein)
# chain: B1 chain with L15R, M378K, N430R, C437F, G462R
# B7: A33P-I283T-P284D-i284aP-N287P-S322T-N388M-E421V-C430N-L432F-L434W-S436N-C437F-H461T-G462R-i462aA-A463T (protein)
# chain: B1 chain with L15R, A33P, M378K, C437F, G462R
# B8: I283T-P284D-i284aP-N287P-S322T-N388M-I418V-E421V-C430N-L432F-L434W-S436N-C437F-H461T-G462R-i462aA-A463T (protein)
# chain: B1 chain with L15R, M378K, I418V, C437F, G462R
# B9: I283T-P284D-i284aP-N287P-S322T-N388M-E421V-C430N-L432F-L434W-S436N-C437F-G448E-H461T-G462R-i462aA-A463T (protein)
# chain: B1 chain with L15R, M378K, C437F, G448E, G462R
# B10: I283T-P284D-i284aP-N287P-S322T-N388M-E421V-C430N-L432F-L434W-S436Q-C437F-H461T-G462R-i462aA-A463T (protein)
# chain: B1 chain with L15R, M378K, N436Q, C437F, G462R
# B11: V272R-I283T-P284D-i284aP-N287P-S322T-N388M-E421V-C430N-L432F-L434W-S436N-H461T-G462R-i462aA-A463T (protein)
# chain: B1 chain with L15R, V272R, M378K, G462R
# B12: I283T-P284D-i284aP-N287P-S322T-N388M-E421V-C430R-L432F-L434W-S436N-C437F-Y438L-H461T-G462R-i462aA-A463T (protein)
# chain: B1 chain with L15R, M378K, N430R, C437F, Y438L, G462R
# B13: V272K-I283T-P284D-i284aP-N287P-S322T-N388M-E421V-C430N-L432F-L434W-S436N-C437F-H461T-G462R-i462aA-A463T (protein)
# chain: B1 chain with L15R, V272K, M378K, C437F, G462R
# B14: V272R-I283T-P284D-i284aP-N287P-S322T-N388M-E421V-C430N-L432F-L434W-S436N-C437F-G448E-H461T-G462R-i462aA-A463T (protein)
# chain: B1 chain with L15R, V272R, M378K, C437F, G448E, G462R
# B15: I283T-P284D-i284aP-N287P-S322T-N388M-E421V-C430N-L432F-L434W-S436N-C437F-Y438L-H461T-G462R-i462aA-A463T (protein)
# chain: B1 chain with L15R, M378K, C437F, Y438L, G462R
# B16: V272I-I283T-P284D-i284aP-N287P-S322T-N388M-E421V-C430R-L432F-L434W-S436N-C437F-H461T-G462R-i462aA-A463T (protein)
# chain: B1 chain with L15R, V272I, M378K, N430R, C437F, G462R
# B17: I283T-P284D-i284aP-N287P-S322T-H384S-N388M-E421V-C430N-L432F-L434W-S436N-C437F-H461T-G462R-i462aA-A463T (protein)
# chain: B1 chain with L15R, M378K, H384S, C437F, G462R
# B18: V272I-I283T-P284D-i284aP-N287P-S322T-N388M-E421V-C430N-L432F-L434W-S436N-C437F-H461T-G462R-i462aA-A463T (protein)
# chain: B1 chain with L15R, V272I, M378K, C437F, G462R
# B19: V272I-I283T-P284D-i284aP-N287P-S322T-N388M-E421V-C430R-L432F-L434W-S436N-C437F-Y438L-H461T-G462R-i462aA-A463T (protein)
# chain: B1 chain with L15R, V272I, M378K, N430R, C437F, Y438L, G462R
# B20: I283T-P284D-i284aP-N287P-S322T-N388M-E421V-C430N-L432F-L434W-S436N-G448E-H461T-G462R-i462aA-A463T (protein)
# chain: B1 chain with L15R, M378K, G448E, G462R
# B21: V272R-I283T-P284D-i284aP-N287P-S322T-N388M-E421V-C430N-L432F-L434W-S436N-H461T-dG462-A463T (protein)
# chain: B1 chain with L15R, V272R, M378K
# B22: V272L-I283T-P284D-i284aP-N287P-S322T-N388M-E421V-C430N-L432F-L434W-S436N-H461T-dG462-A463T (protein)
# chain: B1 chain with L15R, V272L, M378K
# B23: K43E-I283T-P284D-i284aP-N287P-S322T-N388M-E421V-C430P-L432F-L434W-S436N-C437F-H461T-G462R-i462aA-A463T (protein)
# chain: B1 chain with L15R, K43E, M378K, N430P, C437F, G462R
# B24: I283T-P284D-i284aP-N287P-S322T-N388M-E421V-C430N-L432F-L434W-S436N-C437F-E441V-H461T-G462R-i462aA-A463T (protein)
# chain: B1 chain with L15R, M378K, C437F, E441V, G462R
# B25: I283T-P284D-i284aP-N287P-S322T-N388M-E421V-C430N-L432F-L434W-S436N-C437F-G448E-H461T-dG462-A463T (protein)
# chain: B1 chain with L15R, M378K, C437F, G448E
# B26: V272R-I283T-P284D-i284aP-N287P-S322T-N388M-E421V-C430N-L432F-L434W-S436N-G448E-H461T-G462R-i462aA-A463T (protein)
# chain: B1 chain with L15R, V272R, M378K, G448E, G462R
# B27: V272R-I283T-P284D-i284aP-N287P-S322T-N388M-E421V-C430N-L432F-L434W-S436N-G448E-H461T-dG462-A463T (protein)
# chain: B1 chain with L15R, V272R, M378K, G448E
# B28: V272R-I283T-P284D-i284aP-N287P-S322T-N388M-E421V-C430N-L432F-L434W-S436N-C437F-H461T-G462R-i462aA-A463T (protein)
# chain: B1 chain with L15R, V272R, M378K, C437F, G462R
# System: 3-methylcrotonic acid
# Type: biochemical, Yersinia frederiksenii
# Parameters: key: “+” representing a low increase in activity; “++++” representing a high increase in activity
row,Molecule,Activity relative to WT
1,B1,++++
2,B2,++++
3,B3,++++
4,B4,++++
5,B5,++++
6,B6,++++
7,B7,++++
8,B8,++++
9,B9,++++
10,B10,++++
11,B11,++++
12,B12,++++
13,B13,++++
14,B14,++++
15,B15,++++
16,B16,++++
17,B17,++++
18,B18,++++
19,B19,++++
20,B20,++++
21,B21,++++
22,B22,++++
23,B23,++++
24,B24,++++
25,B25,++++
26,B26,++++
27,B27,++++
28,B28,++++
